From the supplement of paper PMC10724198
± gives the standard deviation of the averaged measurements.

Tests used:
Saccharomyces cerevisiae [1] = assay: protein stability index of tFT-peptide fusion (C-terminal peptide) (PSI (0-1 scale)); higher = more stable (slower turnover)
Method: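 MPS profiling in S. cerevisiae of the tFT-X12 degron library: putative degron peptides plus stable controls, 12 aa, fused to the C-terminus of a sfGFP-mCherry timer. Cells are FACS-sorted into 8 mCherry/sfGFP bins and deep-sequenced. PSI runs from 0 (unstable) to 1 (stable). Backgrounds are wild type, das1Δ and doa10Δ at 30 °C, and wild type, das1Δ, cdc34-1 and cdc53-1 at 37 °C; 2-3 technical replicates each.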

Saccharomyces cerevisiae [2] = assay: as above; settings: genetic background: wild type; temperature: 30 C
[3] = genetic background: cdc34-1, temperature: 37 C
[4] = genetic background: cdc53-1, temperature: 37 C
[5] = genetic background: das1 deletion, temperature: 30 C
[6] = genetic background: das1 deletion, temperature: 37 C
[7] = genetic background: doa10 deletion, temperature: 30 C
[8] = genetic background: wild type, temperature: 30 C
[9] = genetic background: wild type, temperature: 37 C
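Further: PSI is a weighted mean of sequencing reads over stability bins, variants kept only with over 10 reads, mCherry proximal and sfGFP distal, peptide attached via GGGS linker.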

| Sequence | protein stability index (Saccharomyces cerevisiae [1]; [3]) | protein stability index (Saccharomyces cerevisiae [1]; [4]) | protein stability index (Saccharomyces cerevisiae [1]; [5]) | protein stability index (Saccharomyces cerevisiae [1]; [6]) | protein stability index (Saccharomyces cerevisiae [1]; [7]) | protein stability index (Saccharomyces cerevisiae [1]; [8]) | protein stability index (Saccharomyces cerevisiae [1]; [9]) | protein stability index (Saccharomyces cerevisiae [2]) |
| --- | --- | --- | --- | --- | --- | --- | --- | --- |
| KLKDLTRIKIFR | 0.681 ± 0.0063 | 0.714 ± 0.033 | 0.666 ± 0.031 | 0.6989 ± 0.0069 | 0.6428 ± 0.002 | 0.6737 ± 0.0056 | 0.701 ± 0.011 | 0.722 ± 0.019 |
| TLSRTPVSPSAP | 0.686 ± 0.051 | 0.738 ± 0.017 | 0.637 ± 0.018 | 0.706 ± 0.021 | 0.674 ± 0.032 | 0.6492 ± 0.0015 | 0.696 ± 0.022 | 0.7094 ± 0.0059 |
| CLLDVVMVVERG | 0.384 ± 0.055 | 0.432 ± 0.0095 | 0.347 ± 0.032 | 0.4016 ± 0.0028 | 0.364 ± 0.035 | 0.347 ± 0.016 | 0.392 ± 0.0043 | 0.365 ± 0.012 |
| LVLFYLWSSVWA | 0.4 ± 0.014 | 0.445 ± 0.0055 | 0.29 ± 0.032 | 0.4726 ± 0.0018 | 0.251 ± 0.01 | 0.279 ± 0.034 | 0.441 ± 0.0095 | 0.3819 ± 0.0021 |
| FLCLLSLFFLDF | 0.532 ± 0.044 | 0.572 ± 0.024 | 0.461 ± 0.03 | 0.626 ± 0.036 | 0.462 ± 0.034 | 0.437 ± 0.011 | 0.575 ± 0.015 | 0.478 ± 0.052 |
| STNMDNRIRTLA | 0.659 ± 0.011 | 0.714 ± 0.012 | 0.638 ± 0.031 | 0.72 ± 0.013 | 0.311 ± 0.0059 | 0.356 ± 0.023 | 0.556 ± 0.017 | 0.431 ± 0.0013 |
| WFCYFSLYVFLL | 0.0995 ± 0.02 | 0.149 ± 0.0067 | 0.168 ± 0.027 | 0.24 ± 0.0052 | 0.133 ± 0.012 | 0.105 ± 0.019 | 0.153 ± 0.026 | 0.214 ± 0.095 |
| VVGVVVCWGCGW | 0.493 ± 0.02 | 0.555 ± 0.057 | 0.393 ± 0.024 | 0.587 ± 0.0062 | 0.369 ± 0.021 | 0.397 ± 0.018 | 0.535 ± 0.0068 | 0.45 ± 0.023 |
| LRCRAATSRTVS | 0.69 ± 0.029 | 0.738 ± 0.015 | 0.6731 ± 0.002 | 0.726 ± 0.03 | 0.391 ± 0.015 | 0.446 ± 0.025 | 0.643 ± 0.0087 | 0.504 ± 0.04 |
| VECVCVVVVRRM | 0.391 ± 0.0055 | 0.497 ± 0.03 | 0.313 ± 0.023 | 0.493 ± 0.01 | 0.266 ± 0.0088 | 0.31 ± 0.021 | 0.466 ± 0.021 | 0.351 ± 0.017 |
| LVYCWFAEYFLV | 0.323 ± 0.043 | 0.561 ± 0.011 | 0.448 ± 0.027 | 0.586 ± 0.0069 | 0.0883 ± 0.016 | 0.106 ± 0.0044 | 0.0859 ± 0.017 | 0.169 ± 0.027 |
| VCPCCPYVMIAG | 0.598 ± 0.061 | 0.641 ± 0.04 | 0.498 ± 0.027 | 0.647 ± 0.0012 | 0.318 ± 0.0013 | 0.336 ± 0.043 | 0.494 ± 0.0062 | 0.489 ± 0.018 |
| VLYWTGTLFVSL | 0.208 ± 0.00082 | 0.355 ± 0.0038 | 0.218 ± 0.017 | 0.426 ± 0.0064 | 0.195 ± 0.019 | 0.233 ± 0.028 | 0.424 ± 0.038 | 0.307 ± 0.035 |
| GICLVLVSDIWI | 0.579 ± 0.032 | 0.558 ± 0.0064 | 0.413 ± 0.026 | 0.599 ± 0.018 | 0.374 ± 0.04 | 0.39 ± 0.014 | 0.568 ± 0.029 | 0.441 ± 0.018 |
| TKKGQTRPSRTD | 0.634 ± 0.0078 | 0.6989 ± 0.0024 | 0.642 ± 0.034 | 0.705 ± 0.017 | 0.6444 ± 0.0049 | 0.687 ± 0.029 | 0.696 ± 0.017 | 0.575 ± 0.21 |
